Test results from article doi:10.1101/2024.10.04.616749, “Structural basis for a nucleoporin exportin complex between RanBP2, SUMO1-RanGAP1, the E2 Ubc9, Crm1 and the Ran GTPase” (bioRxiv, 2024).

How the values were obtained:
Conditions in all cases: both partners purified
Crm1 (full-length human) [1] = molecular target: T1, Crm1 (full-length human) (human, UniProt O14980 1-1071); assay: SEC; analytical size exclusion chromatography of complexes I, II and III assembled from a RanBP2 variant, SUMO1-RanGAP1, Ubc9, Crm1 and Ran^Q69L(GTP); fractions on SDS-PAGE
T1 construct: Crm1 (exportin-1), human, full length; also called exportin Crm1; source: E. coli BL21(DE3) SoluBL21 with Codon Plus (RIL) plasmid, purified (Ni-NTA, Ulp1 cleavage, SEC, MonoQ); not shown: His6-Smt3, N-terminal, cleaved

Ran^Q69L(GTP) = Ran^Q69L(GTP) (human, UniProt P62826 1-216, Q69L); assay: as above
Crm1 (full-length human) [2] = molecular target: T1, Crm1 (full-length human); assay: cryo-EM structure; purified RanBP2^RBD4/SUMO1^Q94P-RanGAP1/Ubc9 incubated with excess Crm1 and Ran^Q69L(GTP), gel filtration in 20 mM HEPES pH 7.4, 110 mM potassium acetate, 2 mM magnesium acetate, 1 mM TCEP; lightly crosslinked with 250 uM BS3 for 30 min; 0.1% CHAPSO

T1 sequence (O14980 whole entry): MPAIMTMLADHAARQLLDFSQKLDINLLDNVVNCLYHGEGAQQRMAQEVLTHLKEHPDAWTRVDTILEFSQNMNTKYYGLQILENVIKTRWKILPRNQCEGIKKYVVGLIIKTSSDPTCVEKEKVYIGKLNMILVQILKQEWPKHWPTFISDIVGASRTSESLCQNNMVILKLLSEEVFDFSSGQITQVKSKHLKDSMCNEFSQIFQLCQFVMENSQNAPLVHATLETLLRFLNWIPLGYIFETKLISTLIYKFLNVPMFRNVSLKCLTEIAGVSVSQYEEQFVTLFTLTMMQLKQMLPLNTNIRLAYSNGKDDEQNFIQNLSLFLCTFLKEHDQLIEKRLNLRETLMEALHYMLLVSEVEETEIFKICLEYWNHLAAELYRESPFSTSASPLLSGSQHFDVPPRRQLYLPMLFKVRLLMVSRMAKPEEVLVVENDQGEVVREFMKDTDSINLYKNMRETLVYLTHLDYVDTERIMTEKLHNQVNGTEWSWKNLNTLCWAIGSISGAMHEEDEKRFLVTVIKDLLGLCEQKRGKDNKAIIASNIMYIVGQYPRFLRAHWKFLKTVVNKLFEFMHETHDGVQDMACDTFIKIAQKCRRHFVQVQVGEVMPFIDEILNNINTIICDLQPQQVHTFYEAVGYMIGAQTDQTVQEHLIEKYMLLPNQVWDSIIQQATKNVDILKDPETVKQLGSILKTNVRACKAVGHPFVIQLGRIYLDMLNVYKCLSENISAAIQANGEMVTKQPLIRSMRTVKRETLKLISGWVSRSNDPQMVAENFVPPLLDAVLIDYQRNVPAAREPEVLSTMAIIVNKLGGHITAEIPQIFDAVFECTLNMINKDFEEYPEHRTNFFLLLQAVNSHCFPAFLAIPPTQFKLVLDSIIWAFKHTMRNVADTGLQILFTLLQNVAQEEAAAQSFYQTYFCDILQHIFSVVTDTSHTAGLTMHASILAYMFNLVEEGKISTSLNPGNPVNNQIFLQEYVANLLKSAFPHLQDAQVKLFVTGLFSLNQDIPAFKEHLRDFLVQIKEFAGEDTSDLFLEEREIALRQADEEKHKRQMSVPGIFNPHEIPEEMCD

Row | Binder | binding result (Crm1 (full-length human) [1]) | binding result (Ran^Q69L(GTP)) | binding result (Crm1 (full-length human) [2])
1 | RanBP2^2300–3060 (RanBP2^RBD3–4) (domain or fragment, human, UniProt P49792 2300-3060, looked up, RanBP2 (Nup358), human, residues 2300-3060: RBD3, FG1, IR1-M-IR2, FG2 and RBD4; pET28b with a thrombin-cleavable His6 tag; no cleavage is described for the protein of the analytical gel filtration runs (it was cleaved for the SUMO conjugation assays); source: E. coli BL21(DE3) Codon Plus (RIL), purified (Ni-NTA, SEC)) TQEEERDGQYFEPVVPLPDLVEVSSGEENEQVVFSHRAKLYRYDKDVGQWKERGIGDIKILQNYDNKQVRIVMRRDQVLKLCANHRITPDMTLQNMKGTERVWLWTACDFADGERKVEHLAVRFKLQDVADSFKKIFDEAKTAQEKDSLITPHVSRSSTPRESPCGKIAVAVLEETTRERTDVIQGDDVADATSEVEVSSTSETTPKAVVSPPKFVFGSESVKSIFSSEKSKPFAFGNSSATGSLFGFSFNAPLKSNNSETSSVAQSGSESKVEPKKCELSKNSDIEQSSDSKVKNLFASFPTEESSINYTFKTPEKAKEKKKPEDSPSDDDVLIVYELTPTAEQKALATKLKLPPTFFCYKNRPDYVSEEEEDDEDFETAVKKLNGKLYLDGSEKCRPLEENTADNEKECIIVWEKKPTVEEKAKADTLKLPPTFFCGVCSDTDEDNGNGEDFQSELQKVQEAQKSQTEEITSTTDSVYTGGTEVMVPSFCKSEEPDSITKSISSPSVSSETMDKPVDLSTRKEIDTDSTSQGESKIVSFGFGSSTGLSFADLASSNSGDFAFGSKDKNFQWANTGAAVFGTQSVGTQSAGKVGEDEDGSDEEVVHNEDIHFEPIVSLPEVEVKSGEEDEEILFKERAKLYRWDRDVSQWKERGVGDIKILWHTMKNYYRILMRRDQVFKVCANHVITKTMELKPLNVSNNALVWTASDYADGEAKVEQLAVRFKTKEVADCFKKTFEECQQNLMKLQKGHVSLAAELSK | binds | binds | 
2 | RanBP2^2300–2910 (RanBP2^RBD3) (domain or fragment, human, UniProt P49792 2300-2910, looked up, RanBP2 (Nup358), human, residues 2300-2910: contains only RBD3 of the two RBDs; pET28b with a thrombin-cleavable His6 tag; no cleavage is described for the analytical gel filtration runs; source: E. coli BL21(DE3) Codon Plus (RIL), purified (Ni-NTA, SEC)) TQEEERDGQYFEPVVPLPDLVEVSSGEENEQVVFSHRAKLYRYDKDVGQWKERGIGDIKILQNYDNKQVRIVMRRDQVLKLCANHRITPDMTLQNMKGTERVWLWTACDFADGERKVEHLAVRFKLQDVADSFKKIFDEAKTAQEKDSLITPHVSRSSTPRESPCGKIAVAVLEETTRERTDVIQGDDVADATSEVEVSSTSETTPKAVVSPPKFVFGSESVKSIFSSEKSKPFAFGNSSATGSLFGFSFNAPLKSNNSETSSVAQSGSESKVEPKKCELSKNSDIEQSSDSKVKNLFASFPTEESSINYTFKTPEKAKEKKKPEDSPSDDDVLIVYELTPTAEQKALATKLKLPPTFFCYKNRPDYVSEEEEDDEDFETAVKKLNGKLYLDGSEKCRPLEENTADNEKECIIVWEKKPTVEEKAKADTLKLPPTFFCGVCSDTDEDNGNGEDFQSELQKVQEAQKSQTEEITSTTDSVYTGGTEVMVPSFCKSEEPDSITKSISSPSVSSETMDKPVDLSTRKEIDTDSTSQGESKIVSFGFGSSTGLSFADLASSNSGDFAFGSKDKNFQWANTGAAVFGTQSVGTQSAGKVGEDEDGSDEEVVHNEDI | binds | binds | 
3 | RanBP2^2446–3060 (RanBP2^RBD4) (domain or fragment, human, UniProt P49792 2446-3060, looked up, RanBP2 (Nup358), human, residues 2446-3060: FG1, IR1-M-IR2, FG2 and RBD4; pET28b with a thrombin-cleavable His6 tag; no cleavage is described for the protein used in cryo-EM reconstitutions and analytical gel filtration; also called RanBP2 FG1-IR1-M-IR2-FG2-RBD4 fragment; hRanBP2^RBD4; source: E. coli BL21(DE3) Codon Plus (RIL), purified (Ni-NTA, SEC)) DSLITPHVSRSSTPRESPCGKIAVAVLEETTRERTDVIQGDDVADATSEVEVSSTSETTPKAVVSPPKFVFGSESVKSIFSSEKSKPFAFGNSSATGSLFGFSFNAPLKSNNSETSSVAQSGSESKVEPKKCELSKNSDIEQSSDSKVKNLFASFPTEESSINYTFKTPEKAKEKKKPEDSPSDDDVLIVYELTPTAEQKALATKLKLPPTFFCYKNRPDYVSEEEEDDEDFETAVKKLNGKLYLDGSEKCRPLEENTADNEKECIIVWEKKPTVEEKAKADTLKLPPTFFCGVCSDTDEDNGNGEDFQSELQKVQEAQKSQTEEITSTTDSVYTGGTEVMVPSFCKSEEPDSITKSISSPSVSSETMDKPVDLSTRKEIDTDSTSQGESKIVSFGFGSSTGLSFADLASSNSGDFAFGSKDKNFQWANTGAAVFGTQSVGTQSAGKVGEDEDGSDEEVVHNEDIHFEPIVSLPEVEVKSGEEDEEILFKERAKLYRWDRDVSQWKERGVGDIKILWHTMKNYYRILMRRDQVFKVCANHVITKTMELKPLNVSNNALVWTASDYADGEAKVEQLAVRFKTKEVADCFKKTFEECQQNLMKLQKGHVSLAAELSK |  | binds | binds
